Source: the nanobody polyreactivity screen of Harvey et al. (2022)

assay: yeast display, Sf9 membrane polyspecificity reagent, FACS + sequencing; frameworks hold sequencing errors
How it was run: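 Genes from sorted yeast were amplified by colony PCR, read by MiSeq 2 × 250 sequencing and filtered on CDR length. These cells carried a synthetic nanobody library in Saccharomyces cerevisiae BJ5465 and were sorted by FACS into low and high (top ~1%) gates on anti-HA and streptavidin fluorescence. Polyreactivity is labelled according to the gate of origin.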

Sequence	polyreactivity (PSR sort gate)
QVQLVESWVGLVQAGGSLSLSCDASGFTILGYAMGWYRQAPGKERELVASITYGGDSTYYADSVKGRFTISRDNAKNTVYLQINCLKPEDTAVYYCNARPSYWWGGRLYGYWGQGSQVTVSS	high polyreactivity
QVQLVETAGGLVHAGGSLRLSCADSGRIFERNAMGWNRQSPGKERELVARITSGGGTYYADSVKGRFTISRDNAKNTVYLQMNSLKPEDTAVYYCAVQYLYRKYRRYDYWGQGTQVTVSS	high polyreactivity
QVQLVETEVGLDQAGGSLPLSCAASGYTFWAYAMGWYRQSPGKERELVAGISSRGSRTYYADSVKGRFTISRDNAKNTVYLQMNSLKPEDTAVYYCNALRTPPGYYPPFDYWGQGTQVTVSS	high polyreactivity
QVQLVETGGGIFQAGGSIRLSCAASGRTFSTYAKGWYRQAPGKERELVAGISRGGGSTYYADSVKGRFTISRDNAKNTVYLLMNSLKPEDTAVYYCAAKRPQYYVQYGYWGQGSQVTVSS	high polyreactivity
QVQLVETGGGIVQAGGSLRLRCAAAGRHCYHNVMGWYRQAPGKERELVAGIRSRGGSTSYADSVKGRFTISRDNSKNTVYLQMNSLKPEDTAVYYCATDTTLWYVLYDYWGQGTQVTVSS	low polyreactivity
QVQLVETGGGLFQAGVSLRLSCAASGSTFDGYVMGWYRQAPGKERELVAAISGSGGSTYYADSVKGRFTISRDHAQNTDYLQMISLKPEDTAVYYCAADSWWYDDYSEGDYWGQGTQVTVSS	low polyreactivity
QVQLVETGGGLVHAGGSLRLSCAASGFIFTEYAMGWYRQAPGKEMELVAAISRSDDATHYADSVKGRFTISRDNAKNTVSLQMNSLKTEDTAVYNCTVAPEGYSLVDTSPYYYWGQGTQVTVSS	low polyreactivity
QVQLVETGGGLVHAGGSLRLSCAASGSIFGLYAMGWYRQAPGKERELVAAITVSGGSTYYADSVKGRFTISRDNAKNTVYLQLNSLKPEDTAVYYCAARAGWPLYQYYYWGQGTQVTVSS	high polyreactivity
QVQLVETGGGLVKAGGSLRLSCAASGRIFLVNDMGWYRQAPGKERELVARINGGITNYADSVKGRFTISRDNAKNTVYFQMISLKPEDTAVYYCAARSRKYYSYYYWGQGTQLTVSS	high polyreactivity
QVQLVETGGGLVLAGGSLRLSCAASGSTFRLYAMGWYRQAPGTARELVAAITSGGSTYYADAVKGRFTISRDNAKNTVYLQMNSLKPEDTAVYYCARLAGDSTYWWWLYLITQRDDYWGQGTQVTVSS	low polyreactivity
QVQLVETGGGLVQAGGILRLSCAASGLIFTGNVMGWYRQAPGKESELVAAISRSGGRTYYADSVKGRFTISRDNAKNTVYLQMNSLKPEDTAVYYCNKVSPERVYYGSYFRYYYWGQGTQVTVSS	high polyreactivity
QVQLVETGGGLVQAGGILRLSCAASGRIFVVYAMGWYRQAPGKERELVASNSRGGRTYYADSVKGRFTISRDNEKNTVYLQMNILKTEDTAVYYCAVVVFLKNRDLFDYWGQGTQVTVSS	low polyreactivity
QVQLVETGGGLVQAGGSLHLSCAASGIIIYANDMGWYRQAPGKERELVAGISRNGGRTYYADSVKGRFTISRDNAKNTVYLQMNSLKPEDTAVYYCAARGSYTSIFDYWGQGTQVTVSS	high polyreactivity
QVQLVETGGGLVQAGGSLLLSCAASGFTLLSYAMGWYRQAPGKERELVAAISESGVSTSYADSVKGRFTISRDNAKNTVYLQMKSLKPEDTAFYYCNKSDFWVVIYDSWGQGTQVTVSS	low polyreactivity
QVQLVETGGGLVQAGGSLRISCAASGFTISFYAMAWYRHAPGKERELVAAISSGGRTSYADSVKGRFTISRDNAKNTVYLQMNSLTPEATAVYYCAATNRWYYRAAAAVYAFGYWGHGTQVTVSS	high polyreactivity
QVQLVETGGGLVQAGGSLRISCAASGIIYVDNVMGSYRQAPGKERELVAAIDYSGGSTYYADSVKGRFTISRDNAKNNVYFQMNSLKPEDTAVYYCHARTYYGYGMDYWGQGTQVTVSS	low polyreactivity
QVQLVETGGGLVQAGGSLRLSCAASGATFNANGMGWYRQAPGKERELVAAISQRAGRTYYADSVKGRFTISRDNAKNTVYLQMNSLKPEDTAVYYCAARYLGGYYFRYYYWGQGTQVTVSS	high polyreactivity
QVQLVETGGGLVQAGGSLRLSCAASGFIFRGNAMGWYRQAPGKERELVAAISKRGGSTNYADSVKGRFTISRDNAKNTVYLQMNSLKPEDTAVYYCNAEGIYRQPRGYVYRYDYWGQGTQVTVSS	high polyreactivity
QVQLVETGGGLVQAGGSLRLSCAASGFIFYPYDMGWYRQAPGKERELVAAITQSGGSTYYADSVKGRFTISRDNAKNTVYLQMNSLKQVDTAVYYCAADYAVWHRGQVVEIYDYWGQGTQVTVSS	low polyreactivity
QVQLVETGGGLVQAGGSLRLSCAASGFILDYNAKGWYRQAPGKERELVAAITSGGSTNYSDSVKGRFTISRDNAKNTVYLQMNSLKPEDTAVYYCNVRSVSPVHDDGSWGQGTQVTVSS	low polyreactivity
QVQLVETGGGLVQAGGSLRLSCAASGFTFYYYAMGWYRQAPGKERELVAAINRSGGSTYYADSLKGRFTISRDNAKNTVYLQMNSLKPEDTAVYYCAAPYVGGSSHGYWGQGTQVTVSS	high polyreactivity
QVQLVETGGGLVQAGGSLRLSCAASGFTIRRYTMGWYRQAPGKERELVAAITRGVRTYYADSVKGRFTISRDNAKNTVYLQMNSLKPEDTAVYYCNTAQQSERDYWGQGTQVTVSS	high polyreactivity

Sequence	polyreactivity (PSR sort gate)
QVQLVETGGGLVQAGGSLRLSCAASGGIFLVNDMGWYRPAPGKERELVAAISGSGGSTYYADSVKGRVTISRDNAKNTVYLQMNSLKPEDTAVYYCAAVGTHKAGGAYNYWGQGTQVTVSS	low polyreactivity
QVQLVETGGGLVQAGGSLRLSCAASGGIIRVYVMGWYIQAPGKERELVAAISRRGGSTYYADSVKGRFTISRDNAKNTVYLKMNSLKPEDTAVYYCAAYSTGTEFDYWGQGTQVSVSS	high polyreactivity
QVQLVETGGGLVQAGGSLRLSCAASGIFVSYAMGWYRQAPGKERELVAAIRYSGDSTYYADSVKGRFTISRDNAKNTVYLQMNSLKPEDTAVYYCAATKGWSRYEYWGQGTQVTVSS	low polyreactivity
QVQLVETGGGLVQAGGSLRLSCAASGIIFSKYAMGRYRQAPGKERELVAAITRSGGSTYYADSVKGRFTISRDNAKNTVYLQMNSLKPEDTAVYYCAKRSGTPTNRQRYGYWGQGTQVTVSS	high polyreactivity
QVQLVETGGGLVQAGGSLRLSCAASGITIRPYTMGWYRQAPGKERELVARISRRGGSTYYADSVKGRFTISRDNAKNTVYLQMNSLKPEDTAVYYCATRSRAHISPYDYWGQGTQVTVSS	high polyreactivity
QVQLVETGGGLVQAGGSLRLSCAASGLILGGYAMGWYRQAHGKERELVAAITRGGGSTFYADSVKGRFTISRDNAKNTVYLQMNSLKPEDTAVYYCAKRYPYRPPGPRYRGLSGYVYWGQGTQVTVSS	high polyreactivity
QVQLVETGGGLVQAGGSLRLSCAASGLTFDENAMGWYRQAPGINYSGASTYYADSVKGRFTISRDNAKNTVYLQMNSLKPEDTAVYYCAAEVVAQMNYWGQGTQVTVSS	low polyreactivity
QVQLVETGGGLVQAGGSLRLSCAASGNIFRAYPMGWYRQAPGKERELVARINSGAITNYADSVKGRFTISRDNAKNTVYLQMNSLKPDDTAVYYCARDTQYPYYFLMDYWGQGTQVTVSS	low polyreactivity
QVQLVETGGGLVQAGGSLRLSCAASGPTFYANAKGWYRQAPGKERELVAVISWGSGSTYYADSVKGRFTISRDNAKNTVYLQMNSLKPEDTAVYYCAKSFYYEGTGDYWGQGTQVTVSS	low polyreactivity
QVQLVETGGGLVQAGGSLRLSCAASGRIFGSYAMGWYRQAPGKERELVASIRSGGRTKYADSVKGRFTISRDNAKNTVYFQMNSLKPEDTAVYYCAVPIEWDYGYWGQGTQVTVSS	low polyreactivity
QVQLVETGGGLVQAGGSLRLSCAASGRIFHLYAMGWYRQAPGKERELVAAITFSGGSTYYADSVKGRFTISRDTAKNTVYLQMNSLKPEDTAVYYCAKRSFYWFSSRLPFKYDYWGQGTQVTVSS	low polyreactivity
QVQLVETGGGLVQAGGSLRLSCAASGRNYTYTMGWYRQAPGKERELVAAITYSGGSTYYADSVKGRFTISRDNAKNTVYLQMNSLKPEDTAVYYCAAVGRWPRYYYWGQGTQVTVSS	high polyreactivity
QVQLVETGGGLVQAGGSLRLSCAASGRPFHRYALGWYRQAPGKDRALGAAISRGGITYYADSVKGRFTISRDNAKNTVYLQMNSLKPEDTAVYYCAALYRYYHESSPFDYWGQGTQVTVSS	high polyreactivity
QVQLVETGGGLVQAGGSLRLSCAASGRTFDPNAMGWYRQAPGKERELVAAIDWTGGRTYYADSVKGRFTISRDNAKNTVYLQMNSLKPEDTAVYYCAARYYRFRSSRDYWGQGTQVTVSS	high polyreactivity
QVQLVETGGGLVQAGGSLRLSCAASGRTFEGNAMGWYRQAPGKERELVAAISGSGGRTYYADSVKGRFTISRDNAKYTVYLQMNSLKPEDTAVYYETLYSVYNPRRFNYWGQGTQVTVSS	high polyreactivity
QVQLVETGGGLVQAGGSLRLSCAASGRTFGIYAMGWYRQAPGKERELVAANTGRGGSTHYADSVKGRFTISRDNAKNTVYLQMNSLKPEDTEVYYGAADYRYNRGITSNKDYDYWGQGTQVTVSS	low polyreactivity
QVQLVETGGGLVQAGGSLRLSCAASGRTFVYNGMGWYRQAPGKERELVAAISGSGGSTYYADSVKGRFTISRDNAKNTVYLQMNSLKPEDTAVYYCATRQGYRLYYWGQGTQVTVSS	high polyreactivity
QVQLVETGGGLVQAGGSLRLSCAASGRTLWSYVMGWYIQAPGKERELVAAITSGGTTYYADSVKGRFTISRDNAKNTFYFQMNSLKPEDTAVYSCNVYTKFVYAYDYWGQGTQVTVSS	high polyreactivity
QVQLVETGGGLVQAGGSLRLSCAASGSIFFDYAKGWSRQAPGKERELVAAIRWSGGRTSYADSVKGRFTISRDNAKNSVYLQMNSVKPEDTAVYYCSARWNRVRYGFDYWGQGTQVTVSS	high polyreactivity
QVQLVETGGGLVQAGGSLRLSCAASGSIFLYYAMGWYRQAHGKERELVAAITSGGSTNYADSVKGRFTISRDNAKNTVYLQMNSLKPEDTAVYYCAARHPYRFWGQGTKVTVSS	high polyreactivity
QVQLVETGGGLVQAGGSLRLSCAASGSIFVTNAMGWYRQPPGKEREFVAAISSSDDSTYYADSVKGRFTISRDNAKNTVYLQMHSLKPEDTAVYYCASDWLFNIIAYDYGLDSWGQGTQVTVSS	low polyreactivity
